Data reported in paper PMC6637906.

Test system: GST-TfmR (Xanthomonas citri subsp. citri 306)
Experiment: EMSA
Settings: LightShift Chemiluminescent EMSA Kit per manufacturer; 1-2 ng biotin DNA, 20 pmol GST-TfmR, 15 min (Fig. 6); buffer, salt, pH and temperature not stated

Substance: pmhpC/fadE promoter
- Kd: 87 nM
